Measured values reported in the supplement of paper PMC5998384.

Key:
HeLa Kyoto [1] = assay: solubility in G1/S (NP-40 vs SDS abundance) (log2 ratio); higher = more soluble; details: cell cycle stage: G1/S
HeLa Kyoto [2] = assay: melting temperature (median over replicates), in situ; higher = more thermally stable
HeLa Kyoto [3] = assay: solubility change mitosis vs G1/S (difference of NP-40 vs SDS log2 ratios) (log2 ratio difference); higher = more soluble in mitosis
HeLa Kyoto [4] = assay: thermal stability score vs G1/S (z-score of summed log2 fold changes over temperatures); higher = more thermally stable than in G1/S
[5] = cell cycle stage: early G1 (4.5 h after nocodazole release)
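Wherever melting temperature (median over replicates), in situ is given: HeLa Kyoto cells synchronized by double thymidine or nocodazole block, proteins quantified by TMT10plex mass spectrometry, three independent biological replicates.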
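Wherever solubility change mitosis vs G1/S (difference of NP-40 vs SDS log2 ratios) is given: synchronized HeLa Kyoto cells (double thymidine block for G1/S, nocodazole release for mitosis), protein amounts in NP-40 versus SDS lysates quantified by mass spectrometry, three biological replicates.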
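Wherever solubility in G1/S (NP-40 vs SDS abundance) is given: HeLa Kyoto cells arrested at G1/S by double thymidine block, proteins quantified by TMT10plex mass spectrometry in mild NP-40 versus SDS extracts, three biological replicates.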
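Wherever thermal stability score vs G1/S (z-score of summed log2 fold changes over temperatures) is given: synchronized HeLa Kyoto cells, proteins quantified by TMT10plex mass spectrometry, three biological replicates, mitosis taken 0.5 h after nocodazole release, G1/S directly after double thymidine block.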

Sequence | solubility in G1/S (log2) (HeLa Kyoto [1]) | melting temperature (HeLa Kyoto [2]; cell cycle stage: G1/S) | melting temperature (HeLa Kyoto [2]; cell cycle stage: mitosis) | solubility change mitosis (log2) (HeLa Kyoto [3]) | thermal stability score (HeLa Kyoto [4]; [5]) | thermal stability score (HeLa Kyoto [4]; cell cycle stage: mitosis)
MGNAAGSAEQPAGPAAPPPKQPAPPKQPMPAAGELEERFNRALNCMNLPPDKVQLLSQYDNEKKWELICDQERFQVKNPPAAYIQKLKSYVDTGGVSRKVAADWMSNLGFKRRVQESTQVLRELETSLRTNHIGWVQEFLNEENRGLDVLLEYLAFAQCSVTYDMESTDNGASNSEKNKPLEQSVEDLSKGPPSSVPKSRHLTIKLTPAHSRKALRNSRIVSQKDDVHVCIMCLRAIMNYQSGFSLVMNHPACVNEIALSLNNKNPRTKALVLELLAAVCLVRGGHDIILAAFDNFKEVCGEQHRFEKLMEYFRNEDSNIDFMVACMQFINIVVHSVENMNFRVFLQYEFTHLGLDLYLERLRLTESDKLQVQIQAYLDNIFDVGALLEDTETKNAVLEHMEELQEQVALLTERLRDAENESMAKIAELEKQLSQARKELETLRERFSESTAMGPSRRPPEPEKAPPAAPTRPSALELKVEELEEKGLIRILRGPGDAVSIEILPVAVATPSGGDAPTPGVPTGSPSPDLAPAAEPAPGAAPPPPPPLPGLPSPQEAPPSAPPQAPPLPGSPEPPPAPPLPGDLPPPPPPPPPPPGTDGPVPPPPPPPPPPPGGPPDALGRRDSELGPGVKAKKPIQTKFRMPLLNWVALKPSQITGTVFTELNDEKVLQELDMSDFEEQFKTKSQGPSLDLSALKSKAAQKAPSKATLIEANRAKNLAITLRKGNLGAERICQAIEAYDLQALGLDFLELLMRFLPTEYERSLITRFEREQRPMEELSEEDRFMLCFSRIPRLPERMTTLTFLGNFPDTAQLLMPQLNAIIAASMSIKSSDKLRQILEIVLAFGNYMNSSKRGAAYGFRLQSLDALLEMKSTDRKQTLLHYLVKVIAEKYPQLTGFHSDLHFLDKAGSVSLDSVLADVRSLQRGLELTQREFVRQDDCMVLKEFLRANSPTMDKLLADSKTAQEAFESVVEYFGENPKTTSPGLFFSLFSRFIKAYKKAEQEVEQWKKEAAAQEAGADTPGKGEPPAPKSPPKARRPQMDLISELKRRQQKEPLIYESDRDGAIEDIITVIKTVPFTARTGKRTSRLLCEASLGEEMPL [FMNL1] | 0.507 | 47.7 °C | 48.1 °C | -0.0294 | 1.48 | 2.85
MGNAGSMDSQQTDFRAHNVPLKLPMPEPGELEERFAIVLNAMNLPPDKARLLRQYDNEKKWELICDQERFQVKNPPHTYIQKLKGYLDPAVTRKKFRRRVQESTQVLRELEISLRTNHIGWVREFLNEENKGLDVLVEYLSFAQYAVTFDFESVESTVESSVDKSKPWSRSIEDLHRGSNLPSPVGNSVSRSGRHSALRYNTLPSRRTLKNSRLVSKKDDVHVCIMCLRAIMNYQYGFNMVMSHPHAVNEIALSLNNKNPRTKALVLELLAAVCLVRGGHEIILSAFDNFKEVCGEKQRFEKLMEHFRNEDNNIDFMVASMQFINIVVHSVEDMNFRVHLQYEFTKLGLDEYLDKLKHTESDKLQVQIQAYLDNVFDVGALLEDAETKNAALERVEELEENISHLSEKLQDTENEAMSKIVELEKQLMQRNKELDVVREIYKDANTQVHTLRKMVKEKEEAIQRQSTLEKKIHELEKQGTIKIQKKGDGDIAILPVVASGTLSMGSEVVAGNSVGPTMGAASSGPLPPPPPPLPPSSDTPETVQNGPVTPPMPPPPPPPPPPPPPPPPPPPPPLPGPAAETVPAPPLAPPLPSAPPLPGTSSPTVVFNSGLAAVKIKKPIKTKFRMPVFNWVALKPNQINGTVFNEIDDERILEDLNVDEFEEIFKTKAQGPAIDLSSSKQKIPQKGSNKVTLLEANRAKNLAITLRKAGKTADEICKAIHVFDLKTLPVDFVECLMRFLPTENEVKVLRLYERERKPLENLSDEDRFMMQFSKIERLMQKMTIMAFIGNFAESIQMLTPQLHAIIAASVSIKSSQKLKKILEIILALGNYMNSSKRGAVYGFKLQSLDLLLDTKSTDRKQTLLHYISNVVKEKYHQVSLFYNELHYVEKAAAVSLENVLLDVKELQRGMDLTKREYTMHDHNTLLKEFILNNEGKLKKLQDDAKIAQDAFDDVVKYFGENPKTTPPSVFFPVFVRFVKAYKQAEEENELRKKQEQALMEKLLEQEALMEQQDPKSPSHKSKRQQQELIAELRRRQVKDNRHVYEGKDGAIEDIITVLKTVPFTARTAKRGSRFFCEPVLTEEYHY [FMNL2] | -0.0432 | 50.8 °C |  | -0.0897 | 0.436 | 0.612
MGNGMCSRKQKRIFQTLLLLTVVFGFLYGAMLYYELQTQLRKAEAVALKYQQHQESLSAQLQVVYEHRSRLEKSLQKERLEHKKAKEDFLVYKLEAQETLNKGRQDSNSRYSALNVQHQMLKSQHEELKKQHSDLEEEHRKQGEDFSRTFNDHKQKYLQLQQEKEQELSKLKETVYNLREENRQLRKAHQDIHTQLQDVKQQHKNLLSEHEQLVVTLEDHKSALAAAQTQVAEYKQLKDTLNRIPSLRKPDPAEQQNVTQVAHSPQGYNTAREKPTREVQEVSRNNDVWQNHEAVPGRAEDTKLYAPTHKEAEFQAPPEPIQQEVERREPEEHQVEEEHRKALEEEEMEQVGQAEHLEEEHDPSPEEQDREWKEQHEQREAANLLEGHARAEVYPSAKPMIKFQSPYEEQLEQQRLAVQQVEEAQQLREHQEALHQQRLQGHLLRQQEQQQQQVAREMALQRQAELEEGRPQHQEQLRQQAHYDAMDNDIVQGAEDQGIQGEEGAYERDNQHQDEAEGDPGNRHEPREQGPREADPESEADRAAVEDINPADDPNNQGEDEFEEAEQVREENLPDENEEQKQSNQKQENTEVEEHLVMAGNPDQQEDNVDEQYQEEAEEEVQEDLTEEKKRELEHNAEETYGENDENTDDKNNDGEEQEVRDDNRPKGREEHYEEEEEEEEDGAAVAEKSHRRAEM [GOLIM4] | 0.317 | 54 °C | 53 °C | -0.0167 | -2.18 | -3.71
MGNRGMEELIPLVNKLQDAFSSIGQSCHLDLPQIAVVGGQSAGKSSVLENFVGRDFLPRGSGIVTRRPLILQLIFSKTEHAEFLHCKSKKFTDFDEVRQEIEAETDRVTGTNKGISPVPINLRVYSPHVLNLTLIDLPGITKVPVGDQPPDIEYQIKDMILQFISRESSLILAVTPANMDLANSDALKLAKEVDPQGLRTIGVITKLDLMDEGTDARDVLENKLLPLRRGYIGVVNRSQKDIEGKKDIRAALAAERKFFLSHPAYRHMADRMGTPHLQKTLNQQLTNHIRESLPALRSKLQSQLLSLEKEVEEYKNFRPDDPTRKTKALLQMVQQFGVDFEKRIEGSGDQVDTLELSGGARINRIFHERFPFELVKMEFDEKDLRREISYAIKNIHGVRTGLFTPDLAFEAIVKKQVVKLKEPCLKCVDLVIQELINTVRQCTSKLSSYPRLREETERIVTTYIREREGRTKDQILLLIDIEQSYINTNHEDFIGFANAQQRSTQLNKKRAIPNQGEILVIRRGWLTINNISLMKGGSKEYWFVLTAESLSWYKDEEEKEKKYMLPLDNLKIRDVEKGFMSNKHVFAIFNTEQRNVYKDLRQIELACDSQEDVDSWKASFLRAGVYPEKDQAENEDGAQENTFSMDPQLERQVETIRNLVDSYVAIINKSIRDLMPKTIMHLMINNTKAFIHHELLAYLYSSADQSSLMEESADQAQRRDDMLRMYHALKEALNIIGDISTSTVSTPVPPPVDDTWLQSASSHSPTPQRRPVSSIHPPGRPPAVRGPTPGPPLIPVPVGAAASFSAPPIPSRPGPQSVFANSDLFPAPPQIPSRPVRIPPGIPPGVPSRRPPAAPSRPTIIRPAEPSLLD [DNM2] | 0.212 | 50.5 °C | 50 °C | -0.144 | 1.01 | 1.14
